Assay results as given in US20200270325A1 (Merck Sharp & Dohme, published 2020).
Numbered stars: 1 amine (or outer) side, 2 acyl side, 3 side chain; on linkers, the order of the positions; unused ones are H or OH. Square brackets hold non-standard residues; d marks the D form. Side chains are listed from the residue outwards. Ends that are not written are not given here. * marks the point of attachment. Phe(4-CH2NH2) = NCc1ccc(C[C@H](N)C(=O)O)cc1; C18 diacid = O=C(O)CCCCCCCCCCCCCCCCC(=O)*; αMeW = C[C@](N)(Cc1c[nH]c2ccccc12)C(=O)O; γGlu = O=C(O)[C@H](CCC(=O)[*:2])N[*:1]; Met(O2) = CS(=O)(=O)CC[C@H](N)C(=O)O; αMeD = C[C@](N)(CC(=O)O)C(=O)O; αMeS = C[C@](N)(CO)C(=O)O; AEEA = NCCOCCOCC(=O)O; Aib = CC(C)(N)C(=O)O

How the values were obtained:
[1] = target: human GLP-1 receptor (GLP1R) (human, UniProt P43220 24-463); experiment: cell-based or functional assay
[2] = target: human Glucagon receptor (GCGR) (human, UniProt P47871 26-477); experiment: cell-based or functional assay
Chain of human Glucagon receptor (GCGR) (P47871 26-477): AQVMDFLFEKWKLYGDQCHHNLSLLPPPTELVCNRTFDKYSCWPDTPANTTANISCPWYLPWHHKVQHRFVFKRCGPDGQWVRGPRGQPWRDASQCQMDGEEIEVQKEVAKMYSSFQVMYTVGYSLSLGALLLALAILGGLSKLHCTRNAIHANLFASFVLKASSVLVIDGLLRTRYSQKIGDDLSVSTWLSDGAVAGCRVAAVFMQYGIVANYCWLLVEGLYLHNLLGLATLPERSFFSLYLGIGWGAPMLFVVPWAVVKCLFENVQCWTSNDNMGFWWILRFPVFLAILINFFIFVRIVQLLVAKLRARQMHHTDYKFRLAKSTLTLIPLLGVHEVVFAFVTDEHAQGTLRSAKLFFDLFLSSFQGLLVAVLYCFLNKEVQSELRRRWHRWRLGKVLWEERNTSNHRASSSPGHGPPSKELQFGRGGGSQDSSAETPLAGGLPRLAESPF

Binder	GLP1R EC50 human [1]	GCGR EC50 human [2]
H[αMeS]QGTFTSDYSKYLD[Aib]RAAK([AEEA-AEEA-γGlu-C20‑OH])DFVQWL[Met(O2)]DT-NH2 [TP592]	2.42 nM	–
H[αMeS]QGTFTSDYSKYLD[Aib]RAAK([AEEA-AEEA-γGlu-C20‑OH])DFVQWL[Met(O2)]DT-NH2 [TP593]	4.95 nM	–
H[Aib]QGTFTSDYSKYLDARAAKDFVQ[αMeW]L[Met(O2)][αMeD]T-NH2 (not fully specified (residue 20); printed as HUQGTFTSDYSKYLDARAAK(PEG2PEG2γEC18-OH)DFVQαMWL2αMDT-NH2) [TP632]	6.6 nM	5.9 nM
H[Aib]QGTFTSDYSKYLDARAAQDFVK([AEEA-γGlu-C18 diacid])WL[Met(O2)]DT-NH2 (N-terminus assumed; SMILES CC(C)C[C@H](NC(=O)[C@H](Cc1ccc(O)cc1)NC(=O)[C@H](CCCCN)NC(=O)[C@H](CO)NC(=O)[C@H](Cc1ccc(O)cc1)NC(=O)[C@H](CC(=O)O)NC(=O)[C@H](CO)NC(=O)[C@@H](NC(=O)[C@H](Cc1ccccc1)NC(=O)[C@@H](NC(=O)CNC(=O)[C@H](CCC(N)=O)NC(=O)C(C)(C)NC(=O)[C@@H](N)Cc1c[nH]cn1)[C@@H](C)O)[C@@H](C)O)C(=O)N[C@@H](CC(=O)O)C(=O)N[C@@H](C)C(=O)N[C@@H](CCCNC(=N)N)C(=O)N[C@@H](C)C(=O)N[C@@H](C)C(=O)N[C@@H](CCC(N)=O)C(=O)N[C@@H](CC(=O)O)C(=O)N[C@@H](Cc1ccccc1)C(=O)N[C@H](C(=O)N[C@@H](CCCCNC(=O)COCCOCCNC(=O)CC[C@H](NC(=O)CCCCCCCCCCCCCCCCC(=O)O)C(=O)O)C(=O)N[C@@H](Cc1c[nH]c2ccccc12)C(=O)N[C@@H](CC(C)C)C(=O)N[C@@H](CCS(C)(=O)=O)C(=O)N[C@@H](CC(=O)O)C(=O)N[C@H](C(N)=O)[C@@H](C)O)C(C)C) [TP637]	0.53 nM	0.94 nM
H[Aib]QGTFTSDYSKYLDARAA[Phe(4-CH2NH2)]([AEEA-AEEA-γGlu-C18 diacid])DFVQWL[Met(O2)][αMeD]T-NH2 (N-terminus assumed; SMILES CC(C)C[C@H](NC(=O)[C@H](Cc1ccc(O)cc1)NC(=O)[C@H](CCCCN)NC(=O)[C@H](CO)NC(=O)[C@H](Cc1ccc(O)cc1)NC(=O)[C@H](CC(=O)O)NC(=O)[C@H](CO)NC(=O)[C@@H](NC(=O)[C@H](Cc1ccccc1)NC(=O)[C@@H](NC(=O)CNC(=O)[C@H](CCC(N)=O)NC(=O)C(C)(C)NC(=O)[C@@H](N)Cc1c[nH]cn1)[C@@H](C)O)[C@@H](C)O)C(=O)N[C@@H](CC(=O)O)C(=O)N[C@@H](C)C(=O)N[C@@H](CCCNC(=N)N)C(=O)N[C@@H](C)C(=O)N[C@@H](C)C(=O)N[C@@H](Cc1ccc(CNC(=O)COCCOCCNC(=O)COCCOCCNC(=O)CC[C@H](NC(=O)CCCCCCCCCCCCCCCCC(=O)O)C(=O)O)cc1)C(=O)N[C@@H](CC(=O)O)C(=O)N[C@@H](Cc1ccccc1)C(=O)N[C@H](C(=O)N[C@@H](CCC(N)=O)C(=O)N[C@@H](Cc1c[nH]c2ccccc12)C(=O)N[C@@H](CC(C)C)C(=O)N[C@@H](CCS(C)(=O)=O)C(=O)N[C@@](C)(CC(=O)O)C(=O)N[C@H](C(N)=O)[C@@H](C)O)C(C)C) [TP636]	0.52 nM	0.11 nM
H[Aib]QGTFTSDYSKYLDARAA[Phe(4-CH2NH2)]([AEEA-γGlu-C18 diacid])DFVQWLLDT-NH2 (N-terminus assumed; SMILES CC(C)C[C@H](NC(=O)[C@H](Cc1ccc(O)cc1)NC(=O)[C@H](CCCCN)NC(=O)[C@H](CO)NC(=O)[C@H](Cc1ccc(O)cc1)NC(=O)[C@H](CC(=O)O)NC(=O)[C@H](CO)NC(=O)[C@@H](NC(=O)[C@H](Cc1ccccc1)NC(=O)[C@@H](NC(=O)CNC(=O)[C@H](CCC(N)=O)NC(=O)C(C)(C)NC(=O)[C@@H](N)Cc1c[nH]cn1)[C@@H](C)O)[C@@H](C)O)C(=O)N[C@@H](CC(=O)O)C(=O)N[C@@H](C)C(=O)N[C@@H](CCCNC(=N)N)C(=O)N[C@@H](C)C(=O)N[C@@H](C)C(=O)N[C@@H](Cc1ccc(CNC(=O)COCCOCCNC(=O)CC[C@H](NC(=O)CCCCCCCCCCCCCCCCC(=O)O)C(=O)O)cc1)C(=O)N[C@@H](CC(=O)O)C(=O)N[C@@H](Cc1ccccc1)C(=O)N[C@H](C(=O)N[C@@H](CCC(N)=O)C(=O)N[C@@H](Cc1c[nH]c2ccccc12)C(=O)N[C@@H](CC(C)C)C(=O)N[C@@H](CC(C)C)C(=O)N[C@@H](CC(=O)O)C(=O)N[C@H](C(N)=O)[C@@H](C)O)C(C)C) [TP635]	2.13 nM	0.46 nM
H[Aib]QGTFTSDYSKYLDARAAQ[Phe(4-CH2NH2)]([AEEA-AEEA-γGlu-C18 diacid])FVQWL[Met(O2)][αMeD]T-NH2 (N-terminus assumed; SMILES CC(C)C[C@H](NC(=O)[C@H](Cc1ccc(O)cc1)NC(=O)[C@H](CCCCN)NC(=O)[C@H](CO)NC(=O)[C@H](Cc1ccc(O)cc1)NC(=O)[C@H](CC(=O)O)NC(=O)[C@H](CO)NC(=O)[C@@H](NC(=O)[C@H](Cc1ccccc1)NC(=O)[C@@H](NC(=O)CNC(=O)[C@H](CCC(N)=O)NC(=O)C(C)(C)NC(=O)[C@@H](N)Cc1c[nH]cn1)[C@@H](C)O)[C@@H](C)O)C(=O)N[C@@H](CC(=O)O)C(=O)N[C@@H](C)C(=O)N[C@@H](CCCNC(=N)N)C(=O)N[C@@H](C)C(=O)N[C@@H](C)C(=O)N[C@@H](CCC(N)=O)C(=O)N[C@@H](Cc1ccc(CNC(=O)COCCOCCNC(=O)COCCOCCNC(=O)CC[C@H](NC(=O)CCCCCCCCCCCCCCCCC(=O)O)C(=O)O)cc1)C(=O)N[C@@H](Cc1ccccc1)C(=O)N[C@H](C(=O)N[C@@H](CCC(N)=O)C(=O)N[C@@H](Cc1c[nH]c2ccccc12)C(=O)N[C@@H](CC(C)C)C(=O)N[C@@H](CCS(C)(=O)=O)C(=O)N[C@@](C)(CC(=O)O)C(=O)N[C@H](C(N)=O)[C@@H](C)O)C(C)C) [TP634]	0.49 nM	0.77 nM
H[Aib]QGTFTSDYSKYLDARAAK([AEEA-AEEA-γGlu-C20‑OH])DFVQWL[Met(O2)][αMeD]T-NH2 [TP565]	2.26 nM	5.42 nM
H[dS]QGTFTSDYSKYLD[Aib]RAAK([AEEA-AEEA-γGlu-C20‑OH])DFVQWL[Met(O2)]DT-NH2 [TP578]	4.95 nM	0.604 nM
H[Aib]QGTFTSDYSKYLDARAAQ[Phe(4-CH2NH2)]([AEEA-γGlu-C18 diacid])FVQWLLDT-NH2 (N-terminus assumed; SMILES CC(C)C[C@H](NC(=O)[C@H](Cc1ccc(O)cc1)NC(=O)[C@H](CCCCN)NC(=O)[C@H](CO)NC(=O)[C@H](Cc1ccc(O)cc1)NC(=O)[C@H](CC(=O)O)NC(=O)[C@H](CO)NC(=O)[C@@H](NC(=O)[C@H](Cc1ccccc1)NC(=O)[C@@H](NC(=O)CNC(=O)[C@H](CCC(N)=O)NC(=O)C(C)(C)NC(=O)[C@@H](N)Cc1c[nH]cn1)[C@@H](C)O)[C@@H](C)O)C(=O)N[C@@H](CC(=O)O)C(=O)N[C@@H](C)C(=O)N[C@@H](CCCNC(=N)N)C(=O)N[C@@H](C)C(=O)N[C@@H](C)C(=O)N[C@@H](CCC(N)=O)C(=O)N[C@@H](Cc1ccc(CNC(=O)COCCOCCNC(=O)CC[C@H](NC(=O)CCCCCCCCCCCCCCCCC(=O)O)C(=O)O)cc1)C(=O)N[C@@H](Cc1ccccc1)C(=O)N[C@H](C(=O)N[C@@H](CCC(N)=O)C(=O)N[C@@H](Cc1c[nH]c2ccccc12)C(=O)N[C@@H](CC(C)C)C(=O)N[C@@H](CC(C)C)C(=O)N[C@@H](CC(=O)O)C(=O)N[C@H](C(N)=O)[C@@H](C)O)C(C)C) [TP633]	0.19 nM	0.12 nM
H[Aib]QGTFTSD[Phe(4-CH2NH2)]([AEEA-AEEA-γGlu-C20‑OH])SKYLDARAAQDFVQWL[Met(O2)]DT-NH2 [TP580]	0.46 nM	1.09 nM
H[Aib]QGTFTSDYSKYLDARAAK([AEEA-AEEA-γGlu-C18 diacid])DFVQ[αMeW]L[Met(O2)]DT-NH2 (N-terminus assumed; SMILES CC(C)C[C@H](NC(=O)[C@H](Cc1ccc(O)cc1)NC(=O)[C@H](CCCCN)NC(=O)[C@H](CO)NC(=O)[C@H](Cc1ccc(O)cc1)NC(=O)[C@H](CC(=O)O)NC(=O)[C@H](CO)NC(=O)[C@@H](NC(=O)[C@H](Cc1ccccc1)NC(=O)[C@@H](NC(=O)CNC(=O)[C@H](CCC(N)=O)NC(=O)C(C)(C)NC(=O)[C@@H](N)Cc1c[nH]cn1)[C@@H](C)O)[C@@H](C)O)C(=O)N[C@@H](CC(=O)O)C(=O)N[C@@H](C)C(=O)N[C@@H](CCCNC(=N)N)C(=O)N[C@@H](C)C(=O)N[C@@H](C)C(=O)N[C@@H](CCCCNC(=O)COCCOCCNC(=O)COCCOCCNC(=O)CC[C@H](NC(=O)CCCCCCCCCCCCCCCCC(=O)O)C(=O)O)C(=O)N[C@@H](CC(=O)O)C(=O)N[C@@H](Cc1ccccc1)C(=O)N[C@H](C(=O)N[C@@H](CCC(N)=O)C(=O)N[C@@](C)(Cc1c[nH]c2ccccc12)C(=O)N[C@@H](CC(C)C)C(=O)N[C@@H](CCS(C)(=O)=O)C(=O)N[C@@H](CC(=O)O)C(=O)N[C@H](C(N)=O)[C@@H](C)O)C(C)C) [TP631]	1.32 nM	1.65 nM
